The values that follow come from patent publication US20050106145A1 (SIGMA TAU INDUSTRIE FARMACEUTICHE RIUNITE S P A, published 2005).

The target of test [1] is T1, human tenascin-C (human, UniProt P24821 23-2201, limits assumed).
T1 construct: Extracellular matrix protein; also called SK-MEL-28 purified tenascin
The experiment in a line: ELISA, optimal antigen concentration (FIG. 6 panel A).

Test [2] concerns the target T1, human tenascin-C. The experiment in a line: BIAcore. In general terms: In SPR one partner is held on a chip, and binding of the other changes the refractive index at the surface.
Test [3] addresses T2, A1-4D fragment (human, UniProt P24821).
T2 construct: recombinant antigenic fragment; Lane B of the Western blots; also called A-D fragment
T2 sequence (antigen fragment, looked up): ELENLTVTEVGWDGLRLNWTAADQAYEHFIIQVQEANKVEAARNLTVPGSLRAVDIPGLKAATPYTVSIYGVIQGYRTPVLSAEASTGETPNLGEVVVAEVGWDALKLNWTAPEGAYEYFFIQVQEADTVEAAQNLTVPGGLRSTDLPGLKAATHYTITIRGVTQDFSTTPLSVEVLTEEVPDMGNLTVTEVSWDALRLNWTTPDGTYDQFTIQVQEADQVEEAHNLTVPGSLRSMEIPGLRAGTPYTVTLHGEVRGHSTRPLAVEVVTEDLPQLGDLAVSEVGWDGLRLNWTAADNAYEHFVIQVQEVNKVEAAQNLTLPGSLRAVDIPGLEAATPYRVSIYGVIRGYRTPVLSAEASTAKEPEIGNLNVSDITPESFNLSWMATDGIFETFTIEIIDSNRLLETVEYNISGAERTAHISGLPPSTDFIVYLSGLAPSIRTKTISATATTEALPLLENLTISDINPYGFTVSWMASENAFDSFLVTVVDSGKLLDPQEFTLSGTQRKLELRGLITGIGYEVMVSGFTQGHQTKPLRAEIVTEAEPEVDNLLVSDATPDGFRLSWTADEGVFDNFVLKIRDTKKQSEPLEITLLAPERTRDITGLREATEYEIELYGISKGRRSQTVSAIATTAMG
The experiment in a line: Western blot.

Test [4] has as its target T1, human tenascin-C. The experiment in a line: BIAcore, comparison with BC4.
Test [5] addresses T1, human tenascin-C. The experiment in a line: BIAcore. The source holds these as a separate data set.

T1 sequence (P24821 23-2201 limits assumed): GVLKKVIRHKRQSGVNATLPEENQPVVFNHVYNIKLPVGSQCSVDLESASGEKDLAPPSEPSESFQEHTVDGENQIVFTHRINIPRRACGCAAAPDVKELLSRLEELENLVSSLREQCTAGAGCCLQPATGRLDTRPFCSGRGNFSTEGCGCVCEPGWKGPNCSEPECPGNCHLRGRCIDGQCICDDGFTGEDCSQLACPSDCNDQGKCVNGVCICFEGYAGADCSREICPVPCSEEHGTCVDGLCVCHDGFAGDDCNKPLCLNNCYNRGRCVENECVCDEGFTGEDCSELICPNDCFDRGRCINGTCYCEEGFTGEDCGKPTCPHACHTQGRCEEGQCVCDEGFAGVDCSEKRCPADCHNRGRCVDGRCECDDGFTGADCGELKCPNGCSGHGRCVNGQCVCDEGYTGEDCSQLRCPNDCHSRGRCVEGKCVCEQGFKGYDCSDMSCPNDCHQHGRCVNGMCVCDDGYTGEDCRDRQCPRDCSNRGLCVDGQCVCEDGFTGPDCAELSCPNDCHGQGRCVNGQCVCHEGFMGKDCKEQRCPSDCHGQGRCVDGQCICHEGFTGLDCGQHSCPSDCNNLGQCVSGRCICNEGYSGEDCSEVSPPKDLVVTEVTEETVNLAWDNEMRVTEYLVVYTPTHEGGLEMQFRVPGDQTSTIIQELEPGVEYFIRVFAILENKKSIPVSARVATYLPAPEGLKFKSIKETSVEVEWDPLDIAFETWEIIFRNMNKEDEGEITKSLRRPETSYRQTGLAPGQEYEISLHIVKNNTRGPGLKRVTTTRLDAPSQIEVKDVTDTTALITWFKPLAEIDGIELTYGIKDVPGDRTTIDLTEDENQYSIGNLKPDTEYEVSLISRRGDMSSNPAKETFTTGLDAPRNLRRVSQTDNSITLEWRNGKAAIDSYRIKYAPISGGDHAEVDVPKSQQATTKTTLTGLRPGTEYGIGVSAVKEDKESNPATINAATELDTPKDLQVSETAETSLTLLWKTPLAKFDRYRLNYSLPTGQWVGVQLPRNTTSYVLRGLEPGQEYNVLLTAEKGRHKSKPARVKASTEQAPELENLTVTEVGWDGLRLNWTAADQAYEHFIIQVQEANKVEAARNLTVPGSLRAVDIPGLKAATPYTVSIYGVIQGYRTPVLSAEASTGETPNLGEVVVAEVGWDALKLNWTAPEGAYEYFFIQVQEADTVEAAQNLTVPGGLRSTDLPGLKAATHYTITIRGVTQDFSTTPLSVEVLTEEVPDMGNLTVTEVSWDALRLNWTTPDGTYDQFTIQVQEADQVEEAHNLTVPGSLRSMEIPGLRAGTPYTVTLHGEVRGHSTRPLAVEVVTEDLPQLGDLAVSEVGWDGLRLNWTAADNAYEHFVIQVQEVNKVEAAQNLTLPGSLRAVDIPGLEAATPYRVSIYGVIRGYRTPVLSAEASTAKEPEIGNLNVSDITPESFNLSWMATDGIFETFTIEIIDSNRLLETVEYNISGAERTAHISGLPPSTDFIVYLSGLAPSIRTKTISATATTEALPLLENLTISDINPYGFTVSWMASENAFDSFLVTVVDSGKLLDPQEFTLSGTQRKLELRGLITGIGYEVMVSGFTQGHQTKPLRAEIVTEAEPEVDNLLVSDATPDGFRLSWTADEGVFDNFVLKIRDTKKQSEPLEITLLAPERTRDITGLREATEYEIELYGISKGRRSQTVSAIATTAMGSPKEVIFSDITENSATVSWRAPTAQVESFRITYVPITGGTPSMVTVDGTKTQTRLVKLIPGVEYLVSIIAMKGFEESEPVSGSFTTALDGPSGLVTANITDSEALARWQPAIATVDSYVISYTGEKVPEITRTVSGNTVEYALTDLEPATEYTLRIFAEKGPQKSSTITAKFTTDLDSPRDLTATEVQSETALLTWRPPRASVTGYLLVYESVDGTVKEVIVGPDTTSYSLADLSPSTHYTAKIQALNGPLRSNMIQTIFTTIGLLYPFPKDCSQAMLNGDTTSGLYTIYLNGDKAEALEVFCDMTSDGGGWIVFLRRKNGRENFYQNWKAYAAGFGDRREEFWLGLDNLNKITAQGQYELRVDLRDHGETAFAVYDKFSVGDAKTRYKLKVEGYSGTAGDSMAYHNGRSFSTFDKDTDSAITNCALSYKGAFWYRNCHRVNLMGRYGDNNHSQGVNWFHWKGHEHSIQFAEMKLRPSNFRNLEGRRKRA

B1: ST2146 anti-human tenascin monoclonal antibody (antibody, V domains shown)
VH: KVKLQQSGPELVKPGASVKVSCKASGYAFTSYNMYWVKQSHGKSLEWIGYIDPYNGVTSYNQKFKGKATLTVDKSSSTAYMHLNSLTSEDSAVYYCARGGGSIYYAMDYWGQGTTVTVSS
VL: DIVMTQAAPSVPVTPGESVSISCRSSKSLLHSNGNTYLYWFLQRPGQSPQLLIYRMSNLASGVPDRFSGSGSGTAFTLRISRVEAEDVGVYYCMQHLEYPLTFGAGTKLELKR
notes: Mouse immunoglobulin of IgG2b/k isotype from hybridoma cST2146; Heavy chain is heterogeneously O-glycosylated
B1: in test [1], the “fold less antibody to obtain 1.0 OD than BC4” value is roughly 100 fold and the “fold less antibody to obtain 1.0 OD than the fully reactive peak 3 of BC4” value is roughly 20 fold. In test [2], the Kd amounted to 1.4 nM. In test [3], the binding result is “no binding”. Further, the “fold affinity against BC4” value in test [4] was roughly 3 fold. Also, in test [5], the koff is 0.00041 s⁻¹ and the kon was determined as 300000 M⁻¹ s⁻¹.

The Kd is the equilibrium constant for the complex coming apart. A higher Kd goes with weaker binding. Broadly, the koff is the rate constant with which the complex falls apart. Read a high koff as a short-lived complex. Usually kon stands for a measure of how fast the partners come together.
